This assay addresses GLP1 receptor (human) (UniProt P43220).

Chain of GLP1 receptor (human) (P43220 24-463): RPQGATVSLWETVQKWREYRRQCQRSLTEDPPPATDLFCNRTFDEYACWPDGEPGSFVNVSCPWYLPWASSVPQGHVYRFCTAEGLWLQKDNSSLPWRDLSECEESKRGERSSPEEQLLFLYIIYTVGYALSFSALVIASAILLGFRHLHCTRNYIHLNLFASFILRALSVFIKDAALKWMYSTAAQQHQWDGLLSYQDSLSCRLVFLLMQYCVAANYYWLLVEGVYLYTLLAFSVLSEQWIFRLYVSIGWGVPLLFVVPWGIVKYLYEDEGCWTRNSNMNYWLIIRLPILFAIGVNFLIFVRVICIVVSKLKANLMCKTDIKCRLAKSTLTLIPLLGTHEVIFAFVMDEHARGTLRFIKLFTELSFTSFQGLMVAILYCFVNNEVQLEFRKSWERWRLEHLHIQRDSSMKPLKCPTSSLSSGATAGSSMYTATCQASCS

For the substance (D)-GLP1 peptide (designed binder), the EC50 of CRE-luciferase expression in HEK293 cells stably expressing GLP1R amounted to 2200 nM.

The values are drawn from publication PMC5816147.
